Measured values reported in the supplement of paper PMC9112550, “Optimization of the antimicrobial peptide Bac7 by deep mutational scanning” (BMC Biology, 2022).

test system: Escherichia coli TOP10; assay: shrunken log2 fold change of peptide-encoding DNA abundance (4.5 h post-induction vs induction); higher = less antimicrobial activity (less host growth inhibition); details: time post-induction: 4.5 h; library: site-saturation at positions 5, 18, 19, 20
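Also: peptides expressed intracellularly from a pBAD plasmid library in pooled LB shake-flask culture, induced with 0.3% L-arabinose, DNA abundance read by NGS, three biological replicates, DESeq2 with apeglm shrinkage.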

Sequence | shrunken log2 fold change
RRIRHRPPRLPRPRPRPVNGPRP | -0.0224
RRIRMRPPRLPRPRPRPRAWPRP | 0.32
RRIRRRPPRLPRPRPRPGVPPRP | 0.264
RRIRTRPPRLPRPRPRPRRKPRP | 0.0652
RRIRCRPPRLPRPRPRPLKVPRP | -0.284
RRIRIRPPRLPRPRPRPCLHPRP | -0.174
RRIRPRPPRLPRPRPRPYQEPRP | -0.418
RRIRYRPPRLPRPRPRPWLQPRP | -0.216
RRIRFRPPRLPRPRPRPTSYPRP | -0.43
RRIRARPPRLPRPRPRPELDPRP | 1.78
RRIRCRPPRLPRPRPRPDPRPRP | 0.83
RRIRYRPPRLPRPRPRPSQVPRP | -0.518
RRIRMRPPRLPRPRPRPCCKPRP | -0.233
RRIRARPPRLPRPRPRPCHKPRP | -0.259
RRIRRRPPRLPRPRPRPTNPPRP | 0.122
RRIRQRPPRLPRPRPRPNKMPRP | -0.0321
RRIRARPPRLPRPRPRPNWEPRP | -0.0132
RRIRVRPPRLPRPRPRPHRRPRP | -0.328
RRIRARPPRLPRPRPRPFLYPRP | -0.0961
RRIRPRPPRLPRPRPRPHMSPRP | -0.27

Sequence | shrunken log2 fold change
RRIRTRPPRLPRPRPRPGGWPRP | 1.23
RRIRHRPPRLPRPRPRPRCTPRP | 0.0847
RRIRRRPPRLPRPRPRPWNPPRP | -0.212
RRIRSRPPRLPRPRPRPDQRPRP | 0.0901
RRIRPRPPRLPRPRPRPEGCPRP | 0.17
RRIRIRPPRLPRPRPRPNENPRP | -0.59
RRIRWRPPRLPRPRPRPMKKPRP | -0.0863
RRIRPRPPRLPRPRPRPCWYPRP | -0.408
RRIRNRPPRLPRPRPRPQQTPRP | -0.0918
RRIRQRPPRLPRPRPRPQMLPRP | 0.0203
RRIRVRPPRLPRPRPRPYQKPRP | -0.0384
RRIRHRPPRLPRPRPRPHLVPRP | -0.18
RRIRSRPPRLPRPRPRPVNYPRP | -0.0921
RRIRIRPPRLPRPRPRPEFKPRP | 0.387
RRIRCRPPRLPRPRPRPEYHPRP | -0.222
RRIRSRPPRLPRPRPRPAYSPRP | -0.0975
RRIRWRPPRLPRPRPRPNMSPRP | -0.00987
RRIRMRPPRLPRPRPRPFHAPRP | 0.199
RRIRYRPPRLPRPRPRPDEAPRP | 0.033
RRIRPRPPRLPRPRPRPCDTPRP | -0.193

Sequence | shrunken log2 fold change
RRIRQRPPRLPRPRPRPAQWPRP | 0.166
RRIRKRPPRLPRPRPRPTLGPRP | 1.72
RRIRLRPPRLPRPRPRPFAIPRP | 0.0494
RRIRERPPRLPRPRPRPAWVPRP | 0.174
RRIRQRPPRLPRPRPRPAINPRP | -0.171
RRIRLRPPRLPRPRPRPPLHPRP | 0.456
RRIRHRPPRLPRPRPRPTGTPRP | -0.0618
RRIRERPPRLPRPRPRPWTFPRP | -0.292
RRIRIRPPRLPRPRPRPIQMPRP | -0.203
RRIRMRPPRLPRPRPRPLPNPRP | 0.098
RRIRVRPPRLPRPRPRPHKMPRP | -0.264
RRIRRRPPRLPRPRPRPAHAPRP | 0.407
RRIRWRPPRLPRPRPRPEGYPRP | 0.607
RRIRIRPPRLPRPRPRPHVEPRP | -0.227
RRIRPRPPRLPRPRPRPNIWPRP | -0.0307
RRIRERPPRLPRPRPRPELLPRP | -0.000642
RRIRPRPPRLPRPRPRPMQFPRP | 0.231
RRIRHRPPRLPRPRPRPAWYPRP | -0.0318
RRIRDRPPRLPRPRPRPQIYPRP | -0.114
RRIRRRPPRLPRPRPRPNTTPRP | -0.283
